In the supplement of paper PMC7877785:
± gives the uncertainty stated by the source.

Assay: self-splicing fitness, log relative to wild type (ln ratio); higher = more splicing; Tetrahymena group I intron in knt gene, E. coli kanamycin selection, DiMSum; sequences stand for … in CUCUCU…GGAGGGAAAAGUUAUCAGGCAUGCACCUGGUAGCUAGUCUUUAAACCAAUAGAUUGCAUCGGUUUAAAAGGCAAGACCGUCAAAUUGCGGGAAAGGGGUCAACAGCCGUUCAGUACCAAGUCUCAGGGGAAACUUUGAGAUGGCCUUGCAAAGGGUAUGGUAAUAAGCUGACGGACAUGGUCCUAACCACGCAGCCAAGUCCUAAGUCAACAGAUCUUCUGUUGAUAUGGAUGCAGUUCACAGACUAAAUGUCGGUCGGGGAAGAUGUAUUCUUCUCAUAAGAUAUAGUCGGACCUCUCCUUAAUGGGAGCUAGCGGAUGAAGUGAUGCAACACUGGAGCCGCUGGGAACUAAUUUGUAUGCGAAAGUAUAUUGAUUAGUUUUGGAGUACUCGUGGUCG
How it was run: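 Pooled colonies went to amplicon sequencing on an Illumina HiSeq 2500 after six replicate transformations. The plates were LB agar with 100 μg/mL carbenicillin, 50 μM IPTG and 0.2% rhamnose, with or without 25 μg/mL kanamycin, incubated overnight at 37°C or 30°C. The E. coli BL21(DE3) library had all eight P1ex-region intron nucleotides randomised, the intron placed in the knt kanamycin-resistance gene on pET-22b(+). DiMSum fitness is the error-weighted combination of replicate fold changes, kanamycin against none, normalised to wild type.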

Sequence	self-splicing fitness (ln) (30 °C)	self-splicing fitness (ln) (37 °C)
UCUAAGCAAUAUUACGGGAG	-3.79 ± 0.16	-2.5 ± 0.14
CCGGAGCAAUAUUACGGUCG	-1.22 ± 0.097	-0.072 ± 0.13
CUCAAGCAAUAUUACGACUA	-2.02 ± 0.31	-2.64 ± 0.34
AUCCAGCAAUAUUACGAAUC	-2.04 ± 0.15	-1.87 ± 0.22
ACCCAGCAAUAUUACGACGC	0.24 ± 0.085	0.483 ± 0.11
CCCGAGCAAUAUUACGGUAG	-3.16 ± 0.18	-2.35 ± 0.17
GUCGAGCAAUAUUACGUACA	-1.02 ± 0.15	-0.719 ± 0.17
UACAAGCAAUAUUACGGUUC	-3.49 ± 0.15	-1.73 ± 0.13
UUCAAGCAAUAUUACGUGAA	-0.675 ± 0.089	-0.479 ± 0.12
AGCGAGCAAUAUUACGCUUG	-3.61 ± 0.15	-1.69 ± 0.15
AGCUAGCAAUAUUACGUGUC	-3.35 ± 0.18	-1.63 ± 0.14
GCGCAGCAAUAUUACGAGGC	-2.7 ± 0.35	-1.29 ± 0.24
CACAAGCAAUAUUACGAACA	-2.61 ± 0.18	-1.72 ± 0.12
UUCCAGCAAUAUUACGAAGA	-0.997 ± 0.11	-0.671 ± 0.1
ACGUAGCAAUAUUACGAGUG	-2.54 ± 0.2	-1.43 ± 0.15
CACUAGCAAUAUUACGCGGC	-3.47 ± 0.28	-2.97 ± 0.25
AUCAAGCAAUAUUACGUACC	-0.82 ± 0.12	-0.953 ± 0.17
AAGCAGCAAUAUUACGGCCC	0.22 ± 0.14	0.271 ± 0.17
CCAGAGCAAUAUUACGCUAU	-3.78 ± 0.43	-2.26 ± 0.37
UGUAAGCAAUAUUACGACUG	-0.779 ± 0.11	-1.14 ± 0.14
AUCAAGCAAUAUUACGAGAC	-3.01 ± 0.3	-1.87 ± 0.19
ACAGAGCAAUAUUACGGUUC	-3.68 ± 0.23	-2.16 ± 0.22
UCUAAGCAAUAUUACGUAAG	-0.798 ± 0.075	-0.333 ± 0.1
CAAGAGCAAUAUUACGACCG	-0.953 ± 0.13	-0.89 ± 0.14

Sequence	self-splicing fitness (ln) (30 °C)	self-splicing fitness (ln) (37 °C)
CACCAGCAAUAUUACGCACG	-0.655 ± 0.045	0.0962 ± 0.062
UCGCAGCAAUAUUACGCGGC	–	-1.94 ± 0.26
AUACAGCAAUAUUACGUAAU	-1.43 ± 0.085	-0.584 ± 0.12
UUUUAGCAAUAUUACGCGUA	-1.57 ± 0.13	-1.22 ± 0.12
AGGUAGCAAUAUUACGAUGG	-3.633 ± 0.029	-2.57 ± 0.042
UAAGAGCAAUAUUACGGGAC	-2.98 ± 0.38	-1.86 ± 0.33
AGAUAGCAAUAUUACGACUG	-1.38 ± 0.2	0.221 ± 0.29
UAGUAGCAAUAUUACGGGUU	-3.97 ± 0.27	-2.66 ± 0.2
AAUUAGCAAUAUUACGCCUA	0.234 ± 0.13	0.297 ± 0.15
UACUAGCAAUAUUACGCAGA	-3.67 ± 0.47	-2.27 ± 0.22
UCCAAGCAAUAUUACGUCCG	-2.76 ± 0.21	-1.81 ± 0.19
AAGGAGCAAUAUUACGCCGU	-1.14 ± 0.27	-1.16 ± 0.37
ACUUAGCAAUAUUACGGACA	-1.46 ± 0.14	-0.798 ± 0.14
GAGAAGCAAUAUUACGCAAU	-3.12 ± 0.17	-1.52 ± 0.14
AGAGAGCAAUAUUACGAUCC	-2.71 ± 0.24	-1.5 ± 0.32
GUUUAGCAAUAUUACGGCUU	-1.08 ± 0.13	-0.894 ± 0.12
UUGAAGCAAUAUUACGUCAC	-3.27 ± 0.21	-1.25 ± 0.2
UAAUAGCAAUAUUACGCCGG	-1.23 ± 0.17	-1.05 ± 0.33
ACAGAGCAAUAUUACGGUAG	-2.61 ± 0.13	-2.49 ± 0.18
CGCCAGCAAUAUUACGGAAU	-2.95 ± 0.2	-2.05 ± 0.21
UCUCAGCAAUAUUACGGACG	-1.84 ± 0.14	-0.508 ± 0.13
ACUCAGCAAUAUUACGUCGG	-1.74 ± 0.07	-1.25 ± 0.084
GUAGAGCAAUAUUACGCACA	-0.23 ± 0.14	-0.117 ± 0.14
GACUAGCAAUAUUACGACCC	0.42 ± 0.14	0.392 ± 0.18

Sequence	self-splicing fitness (ln) (30 °C)	self-splicing fitness (ln) (37 °C)
AUAGAGCAAUAUUACGUCGA	-2.82 ± 0.19	-1.04 ± 0.17
CGGUAGCAAUAUUACGCGUC	–	-1.81 ± 0.39
AGACAGCAAUAUUACGCCUU	-2.75 ± 0.097	-0.727 ± 0.086
CUCCAGCAAUAUUACGAGCU	-4.01 ± 0.28	-2.44 ± 0.23
AAGCAGCAAUAUUACGGUUA	-0.142 ± 0.072	0.0491 ± 0.087
CUCAAGCAAUAUUACGAUCG	-1.26 ± 0.1	-0.0967 ± 0.13
ACAUAGCAAUAUUACGCCCC	-1.98 ± 0.39	-0.782 ± 0.41
CCCGAGCAAUAUUACGAGAG	-3.25 ± 0.2	-2.15 ± 0.36
UUUGAGCAAUAUUACGGCAC	-2.87 ± 0.41	-2.56 ± 0.31
GAACAGCAAUAUUACGCCUG	-1.85 ± 0.13	0.185 ± 0.13
AUUUAGCAAUAUUACGCAAG	-2.59 ± 0.32	-0.488 ± 0.14
ACGAAGCAAUAUUACGCAGU	-3.29 ± 0.17	-2.5 ± 0.2
GGAAAGCAAUAUUACGCGGA	-1.96 ± 0.13	-0.353 ± 0.1
CCUUAGCAAUAUUACGGUCU	-3.95 ± 0.25	-3.77 ± 0.46
CAAGAGCAAUAUUACGUUAC	-2.55 ± 0.12	-2.71 ± 0.23
CAUGAGCAAUAUUACGUAAC	-3.38 ± 0.35	-2.61 ± 0.31
UUCCAGCAAUAUUACGUGUG	-0.736 ± 0.04	-0.164 ± 0.055
CAAAAGCAAUAUUACGUUAG	-1.57 ± 0.064	-0.632 ± 0.084
UUUUAGCAAUAUUACGCGCC	-1.71 ± 0.29	-0.726 ± 0.28
AGGUAGCAAUAUUACGUAGU	-3.123 ± 0.017	-1.62 ± 0.033
GGACAGCAAUAUUACGGGUG	-2.51 ± 0.097	-1.64 ± 0.1
AUUUAGCAAUAUUACGUUGG	-3.51 ± 0.2	-2.62 ± 0.22
GUCAAGCAAUAUUACGACUA	-3.5 ± 0.18	-2.03 ± 0.12
UUAAAGCAAUAUUACGGAUC	-1.78 ± 0.24	-0.2 ± 0.21

Sequence	self-splicing fitness (ln) (30 °C)	self-splicing fitness (ln) (37 °C)
AGUGAGCAAUAUUACGUGCU	-1.86 ± 0.28	–
AUGCAGCAAUAUUACGGAUG	-4.6 ± 0.29	-1.08 ± 0.13
GAUAAGCAAUAUUACGGCCA	-1.15 ± 0.18	0.818 ± 0.17
UCUUAGCAAUAUUACGUAAG	-0.27 ± 0.09	-0.314 ± 0.13
GGCAAGCAAUAUUACGAGAA	-1.8 ± 0.29	-1.74 ± 0.26
GGUGAGCAAUAUUACGACUG	-0.488 ± 0.11	0.309 ± 0.13
GCAAAGCAAUAUUACGUCAA	-3.16 ± 0.19	-2.02 ± 0.14
AGCGAGCAAUAUUACGCGCU	-1.6 ± 0.23	–
UGGUAGCAAUAUUACGAUGA	-0.831 ± 0.13	-0.597 ± 0.19
AGCCAGCAAUAUUACGGGCA	-1.78 ± 0.14	-0.459 ± 0.13
ACCUAGCAAUAUUACGUAGC	-1.81 ± 0.12	-0.966 ± 0.14
ACCCAGCAAUAUUACGUGUU	-1.45 ± 0.047	-0.111 ± 0.061
GCACAGCAAUAUUACGUCUC	-0.14 ± 0.056	0.38 ± 0.059
UACGAGCAAUAUUACGGCCA	-1.61 ± 0.21	-1.85 ± 0.18
GAUAAGCAAUAUUACGACAA	-1.46 ± 0.11	-0.276 ± 0.14
UCGCAGCAAUAUUACGAAUG	-3.42 ± 0.23	-4.35 ± 0.42
ACUAAGCAAUAUUACGUUCA	-1.29 ± 0.1	-0.98 ± 0.098
CAACAGCAAUAUUACGACAC	-2.93 ± 0.18	-1.79 ± 0.18
AGGUAGCAAUAUUACGUAAU	-1.908 ± 0.015	-0.958 ± 0.034
GGUAAGCAAUAUUACGUGCG	-1.12 ± 0.12	-0.227 ± 0.12
UACUAGCAAUAUUACGGUCC	-1.59 ± 0.14	-0.676 ± 0.16
GGGUAGCAAUAUUACGGAUG	-1.19 ± 0.17	-2.61 ± 0.28
AAAAAGCAAUAUUACGAGGU	-4.25 ± 0.29	-3.5 ± 0.23
CUACAGCAAUAUUACGAAAU	-3.72 ± 0.16	-2.82 ± 0.17
